The subject of assay [1] is human invasive ductal carcinoma and invasive lobular carcinoma sections. As to the kind of experiment: confocal immunofluorescence on human carcinoma cryosections. The note with it: Cy3 labelled antibody. As to the method: NI-206.82C2 was labelled with Cyanine 3 for fluorescent imaging (Cy3 conjugation kit: Innova Biosciences, 340-0030) and antibody labelling was validated using a spectophotometer. Cryosections from human invasive ductal carcinoma tissues (FIG. 9, A) and invasive lobular carcinoma (FIG. 9, B) were fixed for 5 minutes in ice cold acetone and allowed to dry for 10 minutes before washing in PBS. The sections were then incubated for 1 hr at room temperature in 5% BSA in PBS. The tissue sections were then incubated with Cyanine 3 prelabelled antibodies overnight at 4° C., and then washed three times in PBS before incubation with DAPI at 0.5 μg/mL. Sections were then washed three additional times in PBS and mounted in Lisbeth's mounting medium before imaging on a SP8 confocal microscope (Leica Microsystems).

Assay [2] relates to arterial occlusion (thrombosis). Briefly: carotid artery photochemical injury-induced thrombosis model. It counts as in vivo, mouse. As to the method: The carotid artery photochemical injury-induced thrombosis model begins with anesthesia by intraperitoneal injection of sodium pentobarbital (87 mg/kg body weight). After slight tail warming (using warm water) rose bengal (10 mg/mL in PBS) is injected into the tail vein in a volume of 0.12 mL at a concentration of 50 mg/kg. Mice will then be secured in a supine position (with the head pointing towards the operator) and placed on a heating pad (rectal temperature will be monitored) under a dissecting microscope. Following a (2.5-3 cm) midline cervical incision and a small incision of the larynx to provide a tracheostoma, by blunt preparation the right common carotid artery is exposed and cleared of connective tissue. A surgical stitch is employed to fix the sternocleidomastoid muscle aside to the right and increase access area to the right carotid artery. Care must be taken to avoid excessive vessel manipulation during procedures. Curved-tip tweezers will be employed to slide under the vessel (from the left side) and gently lift it so as to place the probe under and around it. The probe will be placed as proximal as the access area allows it to be and its connection wire should then be placed on a micromanipulator to fine-adjust its position. (The probe should be perfectly aligned with the vessel so as not to cause any resistance to flow). Little surgical ultrasonic gel should be applied on top of the probe to increase signal quality. Within 6 minutes of Rose Bengal injection, a laser beam will be aimed at the carotid artery and kept at fixed distance of 6 cm for 60 minutes. Flow will be measured during these 60 minutes and for further 60 minutes (max time elapse 120 minutes) or until occlusion occurs. Occlusion is considered as a constant (≧1 min) flow below 0.1 ml/min. Mice are euthanized by an overdose of pentobarbital immediately (25 mg) after the occlusion analysis is completed.
Mice will be placed on a heating pad, to avoid a drop of body temperature. Heart rate (probe measuring the blood flow will also measure the heart rate) will be monitored during the surgery. Anethesia depth will be checked before starting the surgery and during the experiment by pedal withdrawal reflex (animals hind limb will be extended and the interdigital webbing of the foot will firmly pinched by the use of an atraumatic forceps; if there is no withdrawal reaction to the toe pinch, animals will be judged deep enough).
The chosen dose of anesthesia sodium pentobarbital (87 mg/kg body weight) is sufficient to keep the animal in deep anesthesia for the whole duration of the experiment. No second dosing is necessary. […]

Data on one molecule can be found in US20180022822A1, “NOVEL ANTI-FIBROBLAST ACTIVATION PROTEIN (FAP) BINDING AGENTS AND USES THEREOF” (Mabimmune Diagnostics AG, priority 2016, published 2018).

B1: NI-206.82C2: human-derived recombinant anti-FAP antibody; VH SEQ ID NO: 2 or 4 (PIMC), VL SEQ ID NO: 6 (antibody, V domains shown)
VH: QVQLQQSGPGLVKPSQTLSLTCAISGDSVSSNSVTWNWIRQSPSRGLEWLGRTYYRSKWYNDYAVSVKGRITINPDTSKNQFYLQLKSVTPEDAAVYYCARDSSILYGDYWGQGTLVTVSS
VL: QAVLTQPSSLSASPGASASLTCTLPSGINVGTYRIFWFQQKPGSPPQYLLSYKSDSDNHQGSGVPSRFSGSKDASANAGILLISGLQSEDEADYYCMIWHSSAWVFGGGTKLTVL
B1: the “binding to human invasive ductal and invasive lobular carcinoma sections” value in assay [1] is listed as “specifically binds”. Further, the occlusion time entry in assay [2] (20 mg/kg i.v. versus vehicle control, n=4) was “significantly prolonged”. The “median time to occlusion” value in assay [2] (2, 7 and 20 mg/kg versus PBS and 43A11) is “dose-dependent increase”. Besides, the “Log-rank hazard ratio of arterial occlusion” value in assay [2] (versus 43A11 isotype control) came out at 0.04. In assay [2] (versus PBS and 43A11 at 20 mg/kg), the “dose at which significant increase in median time to occlusion starts” value is on record as 2 mg/kg.
